Source: the nanobody polyreactivity screen of Harvey et al. (2022)

Assay: yeast display, Sf9 membrane polyspecificity reagent, FACS + sequencing; frameworks hold sequencing errors
Procedure, shortened: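 Galactose induction of a Saccharomyces cerevisiae BJ5465 synthetic nanobody display library ran 36–48 hours. The cells were then stained for 1 hour at 4 °C with 10% biotinylated, detergent-solubilized Sf9 membrane reagent, pulled down on streptavidin microbeads and FACS-sorted into low and high (top ~1%) gates on expression and reagent-binding fluorescence. Labels for polyreactivity follow the gate of origin.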

Sequence	polyreactivity (PSR sort gate)
QVQLVDSGGGLVQAGGSLRLISAASGLIFSWYDKGWYRQAPGKERELVAAITTDGDDTYYADSVKGRFTISRDNAKNTVYLQMNSLKPDDTAVYYCAADSELGIRYPDRDYDSWGLGTQVTVSS	low polyreactivity
QVQLVDSGGGLVQAGGSLRLSCAASGFIFGKYAMGWYRPAPGKEREFVAAITGNGGSTYYADSVKGRFTISRDNAKNTVYLQMNSLKPEDTAVYYCAADASWELFAWAHYDYWGQGTQVTVSS	low polyreactivity
QVQLVDSGGGLVQAGGSLRLSCAASGFIFHRYAMGWYRQAPGKERELVAAISSSGGSTYYADSVKGRFTISRDNAKNTVYLQMNSLKPEDTAVYYCAAYYHDGYEFNYWGQGTQLTVSS	high polyreactivity
QVQLVDSGGGLVQAGGSLRLSCAASGFIFKGNAMGWSRQAPGKERELVAAISRSGGRTYYADSVKGRFTISRENAKNTVYLEMNSLKPEDTAVYYGATEGDSFSAYDYWVQGTQVTVSS	high polyreactivity
QVQLVDSGGGLVQAGGSLRLSCAASGFIFKRYAMGWYRQAPGKERELVAAINGGGSSTYYADSVKGRFTISRDNAKNTVYLQMNSLKPDDTAVYYCAADTDSWWYYLYYGEGFDYWGQGTQVTVSS	high polyreactivity
QVQLVDSGGGLVQAGGSLRLSCAASGFIFSWYAMGWYRQAPGKERELVAAINWSGGSTYYADSVKGRFTISRDNAKNTVYLQMNSLKPEDTAVYYCAAVTSGISKYDYWGQGTQVTVSS	high polyreactivity
QVQLVDSGGGLVQAGGSLRLSCAASGFIIGYNAMGWYRQAPGKEREFVAAISYNGGSTRYADSVKGRFTISRDNAKNTVYLQMNSLKPEDTAVYYCAAQKARVYRGAWTRYEYWGQGTQVTVSS	high polyreactivity
QVQLVDSGGGLVQAGGSLRLSCAASGFTFADNAMGWYRQAPGKEREFVAAITWTADSTYYADSVKGRFTISRDNAKNTVYVQMNSLKPEDTAVYYCAASYSTIWTLYYYWGQGTQVTVSS	low polyreactivity
QVQLVDSGGGLVQAGGSLRLSCAASGFTIHYKAMGWYRQAPGKERELVATISKSAGITSYADSVKGRFTISRDNAKNTVYLQMNSLNPEDTAVYYCAADKSYRRVYYWGQGTQVTVSS	low polyreactivity
QVQLVDSGGGLVQAGGSLRLSCAASGFTIVHNAMGWYRQAPGKERELVAAISSSGGRTYYADSVKGRFTISRDNAKNTVYLQMNSLKPEDTAVYYCNARGYRGYDYWGQGTQVTVSS	high polyreactivity
QVQLVDSGGGLVQAGGSLRLSCAASGGTISQYAMGWYRQAPGKERELVARISRRGGSTSYADSVKGRFTISRDNAKNTVYLQMNSLKPEDTAVYYCNAVRFYGRWRWIMEYWGQGSQVTVSS	high polyreactivity
QVQLVDSGGGLVQAGGSLRLSCAASGGTISSYAMGWYRQAPGKERELVADITRRGGSTYYADSVKGRFTISRDNAKNTVYLQMNSLKPEDTAVYYCAAEWFRQGHRGLDYWGQGTQVTVSS	high polyreactivity
QVQLVDSGGGLVQAGGSLRLSCAASGIIFPVYAMGWYRQAPGKERELVAAITYSGDRTYYADSVKGRFTISRDNAKNTVYLQMNSLKPEDSAVYYCNARFGVWPYFYNEDDYWGQGTQVTVSS	low polyreactivity
QVQLVDSGGGLVQAGGSLRLSCAASGIILVNNAMGWYRQAPGKEREFVAAIRYSAGSTYYADSVKGRFTISRDNAKTTVYLQMNSLKPEDTAVYYCNAVRYPTRGYYPYRYGYWGQGTQVNVSS	high polyreactivity
QVQLVDSGGGLVQAGGSLRLSCAASGITFGRYAMGWYRQAPGKERELVATITVNGGRTYYADSVKGRFTISRDNAKNTVYLQMNSLKPEDTAVYYCAAESAVDFDYWGQGTQVTVSS	low polyreactivity
QVQLVDSGGGLVQAGGSLRLSCAASGITFNLNVMGWYRQAPGKERELVAAISRSGGRTYYADSVKGRFTISRDNAKNTVYLQMNSLKPEDTAVYYCDALSDRSSVPGDYWGQGTQVTVSS	high polyreactivity
QVQLVDSGGGLVQAGGSLRLSCAASGRIFELYAMGWNTQATGKDRELVAVITNGGSTYYADSVKGRFTISRDNAKNTVYLQLNSLKPEDTAVYYCNGRRGYNRVGGSYGYWGQGTQVTVSS	low polyreactivity
QVQLVDSGGGLVQAGGSLRLSCAASGRIFGVNAMGWYRQAPGKERELVAAINFSGGGTYYADSVKGRFTISRDNAKNTVYLQMNSLKPEDTAVYYCAADGPDYKWYYELDYWGQGTQVTVSS	low polyreactivity
QVQLVDSGGGLVQAGGSLRLSCAASGRIFSENAMVWYRQSRGKERELVAAITANGGDTYYADSVKGRFTISRDNAKNTVYLQMNSLKPEDTAVYYCAAETGGLGGDYWGQGTQVTVSS	low polyreactivity
QVQLVDSGGGLVQAGGSLRLSCAASGRIFYQYAMGWYRQAPGKERELVAGISKRGGSTYYADSVKGRFTISRDNAKNTVYLQMNSLKPEDTAVYYCARGGYPGSAEYDYWGQATQVTVSS	high polyreactivity
QVQLVDSGGGLVQAGGSLRLSCAASGRILSTYPMGWYRPAPGKERELVAAITRTSGSTYYADSVKGRFTISRDNAKNTVFLQMNSLKPEDTEVYYCAADTWLITWSGQYNSWGQGTQVTVSS	low polyreactivity
